This is an account of results in patent publication CN114031685A (INST MILITARY MEDICINE ACADEMY MILITARY SCIENCES PLA, dated 2022).

The target of assay [1] is T1, SARS-CoV-2 NTD蛋白 (SARS-CoV-2, UniProt P0DTC2 14-303).
T1 construct: domain: NTD
In words: ELISA, antigen coated at 2 μg/mL. On the technique in general: ELISA stands for enzyme-linked immunosorbent assay.

The target in assay [2] is T2, SARS-CoV-2 WT S2蛋白 (SARS-CoV-2, UniProt P0DTC2 686-1213).
T2 construct: domain: S2
In words: ELISA, antigen coated at 2 μg/mL.

The target in assay [3] is 新冠病毒野生型 S蛋白 (on pseudovirus / live virus) (SARS-CoV-2, UniProt P0DTC2 14-1273). In words: cell-based or functional assay.

B1: 抗SARS-CoV-2全人源单克隆抗体ZW2G10 (antibody, V domains shown)
VH: EVQLVESGGGLVQPGRSLRLSCAASGFTFDDYAMHWVRQAPGKGLEWVSGITWNSGTIGYADSVKGRFIISRDNAKNSLHLQMNSLRVEDTALYYCAKDNSDYSGYYWELENYGMDVWGQGTTVTVSS
VL: QSVLTQPPSVSGAPGQRVTISCTGSSSNIGAGYDVHWYQQLPGTAPKLLIYDNNNRPSGVPDRFSGSKSGTSASLAITGLQAEDEADYYCQSFDSSLSGVVFGGGTRLTVLR
notes: also called 单抗ZW2G10
Turning to B1, the binding result in assay [1] is given as “no binding”. The binding result in assay [2] is listed as “no binding”. Further, in assay [3], the “假病毒中和 EC50” value turned out to be 0.0142 µg/mL and the “真病毒中和 EC50 (Vero E6)” value stood at 1.08 µg/mL.
